Among the data in paper PMC9951844 are Kd values, retold here.

The target in assay [1] is SARS-CoV-2 Delta spike antigen of the SPR column (construct not stated) (SARS-CoV-2). The assay is described as follows: SPR.
In assay [2] the target is SARS-CoV-2 Omicron BA.1 spike antigen of the SPR column (construct not stated) (SARS-CoV-2). The assay is described as follows: SPR.

B1: YB9-258 (antibody, V domains shown)
VH: EVQLVESGGGLIQPGGSLRLSCAASGLTVSSNYMHWVRQAPGKGLEWVSVLYAGGSAFYADSVKGRFTISRNNSKNTLYLQMNSLRAEDTAIYYCARGLGDYLDSWGQGTLVTVSS
VL: DIQMTQSPSSVSASVGDRVTITCRASQGIGSWLAWYQQKPGKAPQLLIYAASTLQSGVPPRFSGSGSGTDFTLTITSLQPEDFASYYCQQANSVLALTFGGGTKVEIK
In general, Kd refers to a measure of binding affinity in units of concentration. Read a low Kd as tighter binding. For B1, the Kd was determined as 0.00391 nM in assay [1] and 6.06 nM in assay [2].
